Source: patent US7273727B2, “Fusion proteins for prodrug activation” (Behrinwerke Aktiengesellschaft, priority 1992, dated 2007)

B1: sFv-huβGluc: sFv 431/26 human β-glucuronidase fusion protein expressed in yeast (Example 9), highly mannosylated (protein)
chain: QVQLQESGPGLVRPSQTLSLTCTVSGFTISSGYSWHWVRQPPGRGLEWIGYIQYSGITNYNPSLKSRVTMLVDTSKNQFSLRLSSVTAADTAVYYCAREDYDYHWYFDVWGQGTTVTVSSGGGGSGGGGSGGGGSDIQLTQSPSSLSASVGDRVTITCSTSSSVSYMHWYQQKPGKAPKLLIYSTSNLASGVPSRFSGSGSGTDFTFTISSLQPEDIATYYCHQWSSYPTFGQGTKLEIKELKTPLGDTTHTCPRCPAAAAVQGGMLYPQESPSRECKELDGLWSFRADFSDNRRRGFEEQWYRRPLWESGPTVDMPVPSSFNDISQDWRLRHFVGWVWYEREVILPERWTQDLRTRVVLRIGSAHSYAIVWVNGVDTLEHEGGYLPFEADISNLVQVGPLPSRLRITIAINNTLTPTTLPPGTIQYLTDTSKYPKGYFVQNTYFDFFNYAGLQRSVLLYTTPTTYIDDITVTTSVEQDSGLVNYQISVKGSNLFKLEVRLLDAENKVVANGTGTQGQLKVPGVSLWWPYLMHERPAYLYSLEVQLTAQTSLGPVSDFYTLPVGIRTVAVTKSQFLINGKPFYFHGVNKHEDADIRGKGFDWPLLVKDFNLLRWLGANAFRTSHYPYAEEVMQMCDRYGIVVIDECPGVGLALPQFFNNVSLHHHMQVMEEVVRRDKNHPAVVMWSVANEPASHLESAGYYLKMVIAHTKSLDPSRPVTFVSNSNYAADKGAPYVDVICLNSYYSWYHDYGHLELIQLQLATQFENWYKKYQKPIIQSEYGAETIAGFHQDPPLMFTEEYQKSLLEQYHLGLDQKRRKYVVGELIWNFADFMTEQSPTRVLGNKKGIFTRQRQPKSAAFLLRERYWKIANETRYPHSVAKSQCLENSPFT
B2: sFv-huβ-Gluc: humanized sFv fragment against CEA (from MAb BW 431/26) linked via hinge to human β-glucuronidase; SEQ ID NO:2 (protein)
chain: MGWSCIILFLVATATGVHSQVQLQESGPGLVRPSQTLSLTCTVSGFTISSGYSWHWVRQPPGRGLEWIGYIQYSGITNYNPSLKSRVTMLVDTSKNQFSLRLSSVTAADTAVYYCAREDYDYHWYFDVWGQGTTVTVSSGGGGSGGGGSGGGGSDIQLTQSPSSLSASVGDRVTITCSTSSSVSYMHWYQQKPGKAPKLLIYSTSNLASGVPSRFSGSGSGTDFTFTISSLQPEDIATYYCHQWSSYPTFGQGTKLEIKELKTPLGDTTHTCPRCPAAAAVQGGMLYPQESPSRECKELDGLWSFRADFSDNRRRGFEEQWYRRPLWESGPTVDMPVPSSFNDISQDWRLRHFVGWVWYEREVILPERWTQDLRTRVVLRIGSAHSYAIVWVNGVDTLEHEGGYLPFEADISNLVQVGPLPSRLRITIAINNTLTPTTLPPGTIQYLTDTSKYPKGYFVQNTYFDFFNYAGLQRSVLLYTTPTTYIDDITVTTSVEQDSGLVNYQISVKGSNLFKLEVRLLDAENKVVANGTGTQGQLKVPGVSLWWPYLMHERPAYLYSLEVQLTAQTSLGPVSDFYTLPVGIRTVAVTKSQFLINGKPFYFHGVNKHEDADIRGKGFDWPLLVKDFNLLRWLGANAFRTSHYPYAEEVMQMCDRYGIVVIDECPGVGLALPQFFNNVSLHHHMQVMEEVVRRDKNHPAVVMWSVANEPASHLESAGYYLKMVIAHTKSLDPSRPVTFVSNSNYAADKGAPYVDVICLNSYYSWYHDYGHLELIQLQLATQFENWYKKYQKPIIQSEYGAETIAGFHQDPPLMFTEEYQKSLLEQYHLGLDQKRRKYVVGELIWNFADFMTEQSPTRVLGNKKGIFTRQRQPKSAAFLLRERYWKIANETRYPHSVAKSQCLENSPFT

How the values were obtained:
[1] = Analysis of the monosaccharide components in the carbohydrate content (HPAE-PAD after hydrolysis); format: physicochemical
Description: Neuraminic acid was determined by the method of Hermentin and Seidat (1991) GBF Monographs Volume 15, pp. 185-188 (after hydrolysis for 30 min in the presence of 0.1 N sulfuric acid at 80° C. and subsequent neutralization with 0.4 N sodium hydroxide solution) by high-pH anion exchange chomatography with pulsed amerometric detection (HPAE-PAD).
The monosaccaride components were determined (after hydrolysis for 4 h in the presence of 2 N trifluoracetic acid at 100° C. and evaporation to dryness in a SpeedVac) likewise by HPAE-PAD in a […] of the method described by Hardy et al. (1988) Analytical Biochemistry 170, pp. 54-62.

[2] = tested on: CEA; assay: Specificity enzyme activity test, plates coated with CEA; format: biochemical
Description: (§1) The ability of the sFv-huβ-Gluc fusion protein to bind specifically to the CEA epitope defined by 431/26 and simultaneously to exert the enzymatic activity of human β-glucuronidase was shown in a specificity enzyme activity test (EP-A2-0 501 215). The test determines the liberation of 4-methylumbelliferone from 4-methylumbelliferyl β-glucuronide by the β-glucuronidase portion of the fusion protein after the fusion protein has been bound via the sFv portion to an antigen. The measured fluorescence values are reported as relative fluorescence units (FU).

[3] = tested on: PEM (polymorphic epithelial mucin); assay: Specificity enzyme activity test, control plates coated with PEM; format: biochemical
Description: as §1

[4] = Injection of prodrug after injection of fusion protein, side effects; format: in vivo; conditions: prodrug injected 3 days after injection of the fusion protein; data not shown
Description: This rapid internalization mechanism, which is mainly mediated by galactose and mannose, is closely involved in the advantageous phannacokinetics of the fusion protein according to the invention. These advantageous pharmacokinetics of the fusion protein to which galactose and, in particular, mannose are attached makes it possible for a hydrophilic prodrug which undergoes extracellular distribution to be administered i.v. at a relatively early time without eliciting non-specific prodrug activation. In this case an elimination step as described by Sharma et al. (Brit. J. Cancer, 61, 659, 1990) is unnecessary.

[5] = fusion protein from Saccharomyces cerevisiae
[6] = fusion protein expressed by BHK cells
[7] = fusion protein from BHK cells, after hydrolysis

| Molecule | Glucosamine [1, 5] [mol/mol] | Glucose [1, 5] [mol/mol] | Mannose [1, 5] [mol/mol] | antigen specificity [2, 6] | β-glucuronidase activity [2, 6] | liberation of methylumbelliferone from 4-methylumbelliferyl β-glucuronide ([2]; plates coated with CEA) | Fucose, molar ratio [1, 7] | Galactosamine, molar ratio [1, 7] | Galactose, molar ratio [1, 7] | Glucose, molar ratio [1, 7] | Mannose, molar ratio [1, 7] | N-Acetyl glucosamine, molar ratio [1, 7] | N-Acetyl-neuraminic acid, molar ratio [1, 7] | liberation of methylumbelliferone from 4-methylumbelliferyl β-glucuronide [3] | side effects after injection of a suitable prodrug [4] |
| --- | --- | --- | --- | --- | --- | --- | --- | --- | --- | --- | --- | --- | --- | --- | --- |
| B1 | 6 | 12 | 150 | – | – | – | – | – | – | – | – | – | – | – | – |
| B2 | – | – | – | specific for CEA | full β-glucuronidase activity | significant liberation of methyl-umbelliferone | 4 mol of carbohydrate/mol of sFv-huβ-Gluc | 2 mol of carbohydrate/mol of sFv-huβ-Gluc | 8 mol of carbohydrate/mol of sFv-huβ-Gluc | 1 mol of carbohydrate/mol of sFv-huβ-Gluc | 43 mol of carbohydrate/mol of sFv-huβ-Gluc | 30 mol of carbohydrate/mol of sFv-huβ-Gluc | 4 mol of carbohydrate/mol of sFv-huβ-Gluc | does not liberate any methylumbelliferone | without producing significant side effects |
